{"source": "paper PMC4600444", "biological_target": "Xis2d protein of CTnDOT (Bacteroides spp. (conjugative transposon CTnDOT))", "experiment": "SEC", "data": [{"substance": "Xis2d protein of CTnDOT (natural protein)", "values": [{"measurement": "stoichiometry N", "value": 2}]}]}
